Assay results as given in the supplement of paper PMC9876800.

Tested on: peptide library, one residue held at a place counted from the S/T acceptor
Test: relative phosphorylation of the sub-library (ratio to the mean residue at this position); higher = residue favoured
Details: human
Outline: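 Human or orthologue kinase constructs, purified and recombinant, were incubated under kinase-specific conditions in 384-well plates with biotinylated degenerate peptide sub-libraries. Each sub-library fixed one residue at one position around a central Ser/Thr. Incubations lasted 90 min with peptides at 50 μM and 50 μM ATP spiked with γ-32P-ATP, after which spots on streptavidin membranes were phosphorimaged and quantified by densitometry. Relative sub-library phosphorylation is a ratio to the mean residue at that position.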

TGFBR2, construct: aa190-end, sequence (P37173 190-567, looked up): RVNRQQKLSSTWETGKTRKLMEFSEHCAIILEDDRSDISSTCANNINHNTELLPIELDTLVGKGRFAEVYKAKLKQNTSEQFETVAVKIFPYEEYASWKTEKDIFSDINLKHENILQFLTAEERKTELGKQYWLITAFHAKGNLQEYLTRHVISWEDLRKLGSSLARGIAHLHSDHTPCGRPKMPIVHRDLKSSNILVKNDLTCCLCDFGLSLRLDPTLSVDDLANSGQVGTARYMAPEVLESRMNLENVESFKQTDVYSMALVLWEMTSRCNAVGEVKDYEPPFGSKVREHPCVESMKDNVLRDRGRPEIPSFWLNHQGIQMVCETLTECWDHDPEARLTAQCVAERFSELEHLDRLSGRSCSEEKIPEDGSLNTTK
STK32C, construct: aa66-end, sequence (Q86UX6 66-486, looked up): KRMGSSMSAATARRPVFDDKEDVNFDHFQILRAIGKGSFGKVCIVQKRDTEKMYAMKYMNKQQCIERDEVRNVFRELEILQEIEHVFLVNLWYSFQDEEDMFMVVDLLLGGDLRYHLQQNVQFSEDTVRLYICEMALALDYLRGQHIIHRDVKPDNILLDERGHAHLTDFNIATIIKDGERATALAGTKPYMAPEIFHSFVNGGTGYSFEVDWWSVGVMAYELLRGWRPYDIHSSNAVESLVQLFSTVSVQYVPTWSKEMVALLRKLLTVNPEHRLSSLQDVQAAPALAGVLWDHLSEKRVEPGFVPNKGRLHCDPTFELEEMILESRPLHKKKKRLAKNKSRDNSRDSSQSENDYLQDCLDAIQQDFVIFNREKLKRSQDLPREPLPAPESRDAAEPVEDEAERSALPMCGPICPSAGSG
TAOK2, construct: aa1-350, sequence (Q9UL54 1-350, looked up): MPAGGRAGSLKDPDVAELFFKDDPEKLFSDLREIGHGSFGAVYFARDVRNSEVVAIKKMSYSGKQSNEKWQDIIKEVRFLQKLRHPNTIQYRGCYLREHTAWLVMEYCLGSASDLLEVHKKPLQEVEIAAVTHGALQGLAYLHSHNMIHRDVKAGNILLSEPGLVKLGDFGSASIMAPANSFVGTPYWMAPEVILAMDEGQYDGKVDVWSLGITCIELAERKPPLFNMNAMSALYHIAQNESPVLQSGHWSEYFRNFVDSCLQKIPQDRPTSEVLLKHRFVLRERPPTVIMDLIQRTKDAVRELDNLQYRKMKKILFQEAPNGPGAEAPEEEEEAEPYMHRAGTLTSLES
TLK1, construct: Full length, sequence (Q9UKI8 whole entry, looked up): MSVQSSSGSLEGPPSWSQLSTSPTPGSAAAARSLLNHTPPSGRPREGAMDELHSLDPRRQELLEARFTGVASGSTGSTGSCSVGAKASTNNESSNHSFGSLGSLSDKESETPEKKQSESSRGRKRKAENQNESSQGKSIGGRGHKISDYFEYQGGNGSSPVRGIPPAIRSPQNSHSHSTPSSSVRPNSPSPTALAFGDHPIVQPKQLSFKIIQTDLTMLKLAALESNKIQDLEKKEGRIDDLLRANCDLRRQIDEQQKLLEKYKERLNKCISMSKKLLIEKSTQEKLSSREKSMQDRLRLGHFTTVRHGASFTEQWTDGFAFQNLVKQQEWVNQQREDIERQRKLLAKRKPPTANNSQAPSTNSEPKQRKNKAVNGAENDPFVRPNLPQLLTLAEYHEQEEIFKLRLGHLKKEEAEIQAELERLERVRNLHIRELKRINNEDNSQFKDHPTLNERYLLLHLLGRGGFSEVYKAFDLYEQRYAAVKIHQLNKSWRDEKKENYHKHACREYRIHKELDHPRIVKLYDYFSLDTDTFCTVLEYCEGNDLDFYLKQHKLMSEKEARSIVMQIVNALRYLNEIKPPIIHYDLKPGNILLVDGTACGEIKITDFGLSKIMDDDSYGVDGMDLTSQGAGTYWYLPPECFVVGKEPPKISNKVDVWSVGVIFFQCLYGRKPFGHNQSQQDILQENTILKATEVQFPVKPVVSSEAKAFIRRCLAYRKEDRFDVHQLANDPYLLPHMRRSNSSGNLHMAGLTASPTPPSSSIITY

STK32C, construct: aa66-end (from UniProt Q86UX6)
relative phosphorylation
Details	at +1	at +2	at +3	at +4	at -1	at -2	at -3	at -4	at -5
A fixed	0.586	0.613	0.769	0.982	0.776	0.864	0.945	1.11	1.1
D fixed	0.55	0.69	0.689	0.866	0.807	0.64	0.957	1.38	1.18
E fixed	1.12	1.13	0.957	1.46	0.767	0.801	1.03	1.24	0.887
F fixed	2.08	1.21	1.08	0.741	0.739	1.04	0.611	0.759	0.924
G fixed	0.541	0.564	0.682	0.907	1.26	0.918	0.985	1.42	1.32
H fixed	0.588	1.04	1.1	1.02	0.849	0.895	0.645	0.763	0.862
I fixed	1.92	1.03	1.51	0.836	0.592	0.773	0.758	0.812	0.912
K fixed	0.671	0.572	1.05	1.19	1.14	0.826	0.951	0.962	1.05
L fixed	0.965	1.19	0.968	0.832	0.809	1.33	0.772	0.756	0.954
M fixed	1.77	1.09	0.944	0.892	1.09	1.12	0.745	0.94	0.923
N fixed	0.651	0.755	0.836	0.992	1.04	0.841	0.76	0.93	0.882
P fixed	0.399	0.362	0.54	1.21	1.73	1.09	1.04	1.14	1.06
Q fixed	1.18	0.714	0.917	1.07	1.08	0.824	0.796	0.838	0.779
R fixed	1.06	0.743	1.23	1.25	1.97	2.49	3.68	1.38	1.43
V fixed	1.14	0.809	1.33	0.798	0.779	0.745	0.814	0.883	0.854
W fixed	0.863	2.44	1.21	1.05	0.672	0.887	0.698	0.86	0.954
Y fixed	0.919	2.05	1.18	0.899	0.909	0.911	0.804	0.829	0.927
pThr fixed	1.03	2.66	3.27	2.05	1.08	1.28	7.04	1.72	1.18
pTyr fixed	2.11	71.5	5.77	9.82	1.41	2.55	1.39	1.07	1.07

TAOK2, construct: aa1-350 (from UniProt Q9UL54)
relative phosphorylation
Details	at +1	at +2	at +3	at +4	at -1	at -2	at -3	at -4	at -5
A fixed	0.607	0.791	0.808	0.75	0.832	0.94	0.901	0.992	1.03
D fixed	0.505	0.606	0.532	0.619	0.726	0.706	0.741	0.931	1.01
E fixed	0.496	0.483	0.501	0.593	0.566	0.621	0.725	0.92	0.888
F fixed	1.23	0.651	0.845	0.887	0.938	1.4	0.806	0.907	0.896
G fixed	0.606	0.697	0.953	0.937	1.45	1.13	1.34	1.14	1.13
H fixed	0.855	0.993	0.924	1.04	1.28	1.01	1.06	1.08	1.06
I fixed	1.47	0.723	0.761	0.763	0.561	0.703	0.642	0.746	0.73
K fixed	0.753	2.65	2	1.72	1.11	0.981	2.14	1.46	1.45
L fixed	1.49	0.644	0.807	0.778	1.1	0.709	0.672	0.781	0.767
M fixed	1.49	0.734	0.735	0.764	1.26	0.978	0.828	0.857	0.827
N fixed	0.64	1.24	0.876	0.845	1.16	0.972	0.944	1.1	1.05
P fixed	0.589	0.76	0.906	0.834	0.667	0.876	0.777	0.965	0.969
Q fixed	0.727	0.884	0.838	0.949	0.851	0.896	1	1.01	0.977
R fixed	0.778	2.81	2.84	2.19	1.27	1.1	1.59	1.28	1.38
V fixed	1.09	0.812	0.753	0.738	0.583	0.731	0.672	0.818	0.889
W fixed	2.32	0.69	1.04	1.35	1.1	1.08	1.02	1	0.986
Y fixed	1.35	0.835	0.873	1.24	1.54	2.16	1.13	1.01	0.96
pThr fixed	0.639	0.557	0.614	0.55	0.605	0.742	0.817	0.964	1
pTyr fixed	0.577	0.54	0.626	0.609	1.27	0.822	0.909	1.03	1.1

TGFBR2, construct: aa190-end (from UniProt P37173)
relative phosphorylation
Details	at +1	at +2	at +3	at +4	at -1	at -2	at -3	at -4	at -5
A fixed	0.597	1.09	0.846	0.874	0.646	0.441	0.835	0.987	1
D fixed	0.508	0.616	0.509	0.57	0.715	4.02	1.25	1.01	0.775
E fixed	0.77	0.466	0.485	0.529	0.775	5.47	1.24	0.907	0.713
F fixed	1.27	0.826	1.04	0.789	1.02	0.412	0.859	0.952	0.97
G fixed	0.63	1.36	1.29	1.08	0.67	0.665	1.05	1.08	1.11
H fixed	0.872	1.16	1.18	1.09	1.04	0.478	0.882	1.13	1.1
I fixed	1.69	1.1	1.05	1.06	0.757	0.327	0.748	0.851	0.9
K fixed	0.531	1.26	1.12	1.43	1.03	0.447	0.855	0.91	1.2
L fixed	1.32	0.584	1.07	0.839	1.38	0.366	0.717	0.814	0.901
M fixed	2.09	0.826	0.922	0.919	1.34	0.484	0.907	0.872	0.809
N fixed	0.801	0.891	0.941	0.85	0.812	0.877	0.982	1.08	0.908
P fixed	0.271	0.89	1.12	1.33	1.1	0.365	1.09	1	0.95
Q fixed	1.36	1.08	0.778	0.932	1.01	0.598	0.985	0.898	0.848
R fixed	0.834	1.36	1.32	1.23	0.911	0.886	1.72	1	1.17
V fixed	1.36	1.18	1.01	0.964	1.11	0.332	0.794	0.897	0.933
W fixed	0.946	1.29	1.18	1.47	1.19	0.419	1.12	1.59	1.58
Y fixed	1.14	1.02	1.15	1.06	1.49	0.41	0.973	1.02	1.13
pThr fixed	1.55	0.529	0.488	0.539	0.594	1.2	0.884	0.863	0.765
pTyr fixed	0.53	0.432	0.685	0.483	0.951	0.441	0.778	0.63	0.746

TLK1, construct: Full length (from UniProt Q9UKI8)
relative phosphorylation
Details	at +1	at +2	at +3	at +4	at -1	at -2	at -3	at -4	at -5
A fixed	0.502	0.943	1.34	0.901	1.02	1.28	1.23	0.986	0.846
D fixed	0.279	1.17	0.745	0.602	2.36	3.12	2.28	1.26	0.993
E fixed	0.353	0.499	0.939	0.52	1.98	3.77	1.44	1.01	0.812
F fixed	0.586	1.4	1.32	1.77	0.517	0.384	0.887	1.51	1.46
G fixed	0.296	0.832	1.13	0.978	0.518	0.875	0.741	0.765	0.693
H fixed	0.917	1.63	1.06	0.957	1.08	0.843	1.14	1.12	0.909
I fixed	1.06	0.658	0.707	0.968	0.717	0.384	0.688	1.24	1.06
K fixed	0.848	0.636	0.646	0.891	1.02	0.512	0.856	0.757	0.952
L fixed	1.49	1.02	0.72	1.02	0.887	0.371	0.679	0.984	0.936
M fixed	2.43	1.6	0.993	0.964	0.751	0.588	0.907	0.896	0.826
N fixed	1.66	0.582	0.636	0.674	1.44	1.35	1.09	0.598	0.609
P fixed	0.217	0.821	1.29	1.38	0.364	0.484	0.856	0.554	0.897
Q fixed	2.14	0.964	0.808	0.722	0.808	1.11	0.775	0.871	0.697
R fixed	1.98	0.664	0.848	0.815	1.27	0.504	1.01	0.795	1.32
V fixed	0.996	0.569	0.809	0.81	0.789	0.497	0.659	1.21	1.16
W fixed	0.669	2.09	1.6	1.77	0.633	0.46	0.836	1.26	1.43
Y fixed	0.577	0.931	1.41	1.26	0.831	0.47	0.932	1.2	1.41
pThr fixed	0.472	0.804	0.79	0.807	0.694	1.76	1.85	1.18	0.601
pTyr fixed	0.518	1.39	1.48	1.08	1.61	2.32	1.4	1.55	1.68
